IntAct's records for PubMed 31515488

B1: Notch homolog 2 N-terminal-like protein A (Homo sapiens), Q7Z3S9 (parent)
chain: MCVTYHNGTGYCKCPEGFLGEYCQHRDPCEKNRCQNGGTCVAQAMLGKATCRCASGFTGEDCQYSTSHPCFVSRPCLNGGTCHMLSRDTYECTCQVGFTGKECQWTDACLSHPCANGSTCTTVANQFSCKCLTGFTGQKCETDVNECDIPGHCQHGGTCLNLPGSYQCQCLQGFTGQYCDSLYVPCAPSPCVNGGTCRQTGDFTFECNCLPETVRRGTELWERDREVWNGKEHDEN

Variants of: B1
Details: with pde9a_human PDE9A

R74Q was tested. Which “effect of a mutation on the interaction” value did it give?
The value was “with no effect”.

Variants of: B1
Details: with ppbi_human ALPI

With R74Q as the variant, how does the “effect of a mutation on the interaction” value read?
Its value is “with no effect”.

Variants of: B1
Details: with snai1_human SNAI1, O95863
Chain of snai1_human SNAI1, O95863 (O95863 whole entry): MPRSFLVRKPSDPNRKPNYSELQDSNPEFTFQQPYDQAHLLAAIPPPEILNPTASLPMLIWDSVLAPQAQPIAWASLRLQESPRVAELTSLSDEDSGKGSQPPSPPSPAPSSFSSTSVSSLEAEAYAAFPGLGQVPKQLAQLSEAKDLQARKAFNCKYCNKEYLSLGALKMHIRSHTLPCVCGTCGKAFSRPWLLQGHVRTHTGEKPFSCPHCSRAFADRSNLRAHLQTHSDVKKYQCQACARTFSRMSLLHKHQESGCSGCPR

For R74Q, which “effect of a mutation on the interaction” value is on record?
The value was “with no effect”.

Variants of: B1
Details: with anfb_human NPPB

Which “effect of a mutation on the interaction” value does the source give for R74Q here?
The value was “with no effect”.

Variants of: B1
Details: with adck5_human ADCK5, Q3MIX3
Chain of adck5_human ADCK5, Q3MIX3 (Q3MIX3 whole entry): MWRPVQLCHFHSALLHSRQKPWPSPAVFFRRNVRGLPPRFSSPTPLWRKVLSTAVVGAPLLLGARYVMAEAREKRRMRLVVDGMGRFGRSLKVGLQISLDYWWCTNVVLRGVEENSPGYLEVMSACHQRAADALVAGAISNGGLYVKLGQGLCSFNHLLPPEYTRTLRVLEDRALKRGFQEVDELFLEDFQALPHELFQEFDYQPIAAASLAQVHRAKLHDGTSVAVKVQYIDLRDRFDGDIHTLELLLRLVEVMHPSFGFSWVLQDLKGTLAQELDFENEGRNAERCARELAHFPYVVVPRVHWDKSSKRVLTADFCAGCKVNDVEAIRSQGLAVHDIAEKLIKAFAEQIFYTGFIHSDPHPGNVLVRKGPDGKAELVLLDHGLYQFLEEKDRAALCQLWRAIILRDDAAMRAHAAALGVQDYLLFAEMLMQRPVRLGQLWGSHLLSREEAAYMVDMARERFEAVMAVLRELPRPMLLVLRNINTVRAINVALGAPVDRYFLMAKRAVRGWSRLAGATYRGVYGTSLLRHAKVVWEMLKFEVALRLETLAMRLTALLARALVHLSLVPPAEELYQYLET

For R74Q, which “effect of a mutation on the interaction” value is on record?
Its value is “with no effect”.

Variants of: B1
Details: with catz_human CTSZ

R74Q was tested. Which “effect of a mutation on the interaction” value did it give?
The value was “with no effect”.

Variants of: B1
Details: with txnd5_human TXNDC5, Q8NBS9
Chain of txnd5_human TXNDC5, Q8NBS9 (Q8NBS9 whole entry): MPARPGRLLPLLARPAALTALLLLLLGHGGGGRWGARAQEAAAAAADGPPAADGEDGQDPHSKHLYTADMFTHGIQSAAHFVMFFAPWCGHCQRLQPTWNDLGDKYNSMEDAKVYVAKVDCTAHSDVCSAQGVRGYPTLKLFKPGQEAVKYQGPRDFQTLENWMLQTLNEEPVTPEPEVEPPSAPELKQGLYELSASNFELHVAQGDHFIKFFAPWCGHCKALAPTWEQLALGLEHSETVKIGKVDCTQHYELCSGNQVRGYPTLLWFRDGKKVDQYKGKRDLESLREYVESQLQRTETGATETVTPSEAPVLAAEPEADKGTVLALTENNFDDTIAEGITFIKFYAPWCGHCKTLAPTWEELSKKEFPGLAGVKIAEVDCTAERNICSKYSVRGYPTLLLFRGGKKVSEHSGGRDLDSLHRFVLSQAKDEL

With R74Q as the variant, how does the “effect of a mutation on the interaction” value read?
Its value is “with no effect”.

Variants of: B1
Details: with trpv6_human TRPV6, Q9H1D0
Chain of trpv6_human TRPV6, Q9H1D0 (Q9H1D0 whole entry): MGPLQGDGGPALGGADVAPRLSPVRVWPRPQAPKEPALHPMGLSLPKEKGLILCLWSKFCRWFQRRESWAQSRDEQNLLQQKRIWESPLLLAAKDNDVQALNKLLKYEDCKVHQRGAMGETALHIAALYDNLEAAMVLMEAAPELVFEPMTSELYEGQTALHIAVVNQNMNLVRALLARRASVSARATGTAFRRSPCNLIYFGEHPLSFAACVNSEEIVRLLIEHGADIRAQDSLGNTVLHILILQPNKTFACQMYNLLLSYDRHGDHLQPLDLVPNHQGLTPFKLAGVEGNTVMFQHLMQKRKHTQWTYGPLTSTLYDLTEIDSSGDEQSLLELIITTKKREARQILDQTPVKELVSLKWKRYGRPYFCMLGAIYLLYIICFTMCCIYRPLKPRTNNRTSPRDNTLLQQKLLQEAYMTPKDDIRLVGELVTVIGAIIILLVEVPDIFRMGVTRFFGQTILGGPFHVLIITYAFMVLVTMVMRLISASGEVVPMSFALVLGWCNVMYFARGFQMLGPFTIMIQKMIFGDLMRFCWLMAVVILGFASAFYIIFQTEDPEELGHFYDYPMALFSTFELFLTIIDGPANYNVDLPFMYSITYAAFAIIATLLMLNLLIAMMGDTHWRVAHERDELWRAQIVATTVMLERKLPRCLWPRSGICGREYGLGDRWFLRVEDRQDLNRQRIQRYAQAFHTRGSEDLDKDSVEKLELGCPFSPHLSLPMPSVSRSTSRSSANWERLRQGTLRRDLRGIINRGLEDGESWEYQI

R74Q was tested. Which “effect of a mutation on the interaction” value did it give?
The value was “with no effect”.

Variants of: B1
Details: with ptn23_human PTPN23, Q9H3S7
Chain of ptn23_human PTPN23, Q9H3S7 (Q9H3S7 whole entry): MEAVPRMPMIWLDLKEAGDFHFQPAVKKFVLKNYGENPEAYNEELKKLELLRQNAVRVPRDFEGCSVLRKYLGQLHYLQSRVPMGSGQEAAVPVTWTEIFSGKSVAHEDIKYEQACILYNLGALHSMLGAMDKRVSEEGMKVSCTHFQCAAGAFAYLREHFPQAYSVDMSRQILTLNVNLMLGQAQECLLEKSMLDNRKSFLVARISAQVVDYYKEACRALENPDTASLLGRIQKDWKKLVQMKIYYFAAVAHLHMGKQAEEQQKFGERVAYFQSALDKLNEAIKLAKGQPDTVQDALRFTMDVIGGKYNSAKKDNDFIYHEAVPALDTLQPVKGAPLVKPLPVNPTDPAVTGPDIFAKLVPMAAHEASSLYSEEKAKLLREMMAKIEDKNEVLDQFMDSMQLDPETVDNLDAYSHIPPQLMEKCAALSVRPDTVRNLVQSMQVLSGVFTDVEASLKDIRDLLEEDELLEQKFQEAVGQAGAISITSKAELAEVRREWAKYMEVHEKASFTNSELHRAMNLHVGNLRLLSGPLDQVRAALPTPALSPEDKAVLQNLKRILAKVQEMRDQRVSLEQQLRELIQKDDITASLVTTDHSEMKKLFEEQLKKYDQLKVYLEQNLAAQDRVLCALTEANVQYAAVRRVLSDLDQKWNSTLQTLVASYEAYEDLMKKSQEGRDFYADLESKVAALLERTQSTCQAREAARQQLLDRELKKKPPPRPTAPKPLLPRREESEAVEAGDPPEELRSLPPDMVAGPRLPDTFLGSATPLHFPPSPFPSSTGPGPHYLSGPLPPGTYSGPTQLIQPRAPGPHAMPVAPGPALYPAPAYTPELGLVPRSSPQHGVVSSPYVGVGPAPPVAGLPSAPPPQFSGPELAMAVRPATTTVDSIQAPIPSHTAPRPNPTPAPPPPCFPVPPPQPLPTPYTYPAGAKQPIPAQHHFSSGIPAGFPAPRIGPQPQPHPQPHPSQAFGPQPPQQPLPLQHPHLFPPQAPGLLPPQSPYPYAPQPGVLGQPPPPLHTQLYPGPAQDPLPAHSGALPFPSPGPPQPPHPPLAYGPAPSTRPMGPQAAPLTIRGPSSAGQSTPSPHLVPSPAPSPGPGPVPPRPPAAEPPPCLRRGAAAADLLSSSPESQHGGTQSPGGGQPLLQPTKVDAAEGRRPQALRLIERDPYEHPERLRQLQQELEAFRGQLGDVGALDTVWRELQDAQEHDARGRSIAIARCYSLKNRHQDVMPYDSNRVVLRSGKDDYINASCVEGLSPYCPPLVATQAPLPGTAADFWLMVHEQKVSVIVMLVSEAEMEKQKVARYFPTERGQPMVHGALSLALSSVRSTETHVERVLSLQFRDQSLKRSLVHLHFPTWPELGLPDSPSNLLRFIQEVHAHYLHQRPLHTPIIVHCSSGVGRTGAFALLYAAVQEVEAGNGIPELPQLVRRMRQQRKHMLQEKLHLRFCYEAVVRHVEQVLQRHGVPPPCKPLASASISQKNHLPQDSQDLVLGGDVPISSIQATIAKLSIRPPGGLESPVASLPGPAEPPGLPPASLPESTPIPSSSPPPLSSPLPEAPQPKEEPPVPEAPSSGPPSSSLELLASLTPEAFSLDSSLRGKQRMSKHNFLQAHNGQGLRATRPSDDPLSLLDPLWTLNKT

Which “effect of a mutation on the interaction” value does the source give for R74Q here?
The value was “with no effect”.

Variants of: B1
Details: with gata2_human GATA2, P23769

Which “effect of a mutation on the interaction” value does the source give for R74Q here?
The value was “with no effect”.

Variants of: B1
Details: with hbaz_human HBZ

With R74Q as the variant, how does the “effect of a mutation on the interaction” value read?
Its value is “with no effect”.

Variants of: B1
Details: with nect3_human NECTIN3, Q9NQS3

R74Q was tested. Which “effect of a mutation on the interaction” value did it give?
Its value is “with no effect”.

Variants of: B1
Details: with cd5r1_human CDK5R1, Q15078
Chain of cd5r1_human CDK5R1, Q15078 (Q15078 whole entry): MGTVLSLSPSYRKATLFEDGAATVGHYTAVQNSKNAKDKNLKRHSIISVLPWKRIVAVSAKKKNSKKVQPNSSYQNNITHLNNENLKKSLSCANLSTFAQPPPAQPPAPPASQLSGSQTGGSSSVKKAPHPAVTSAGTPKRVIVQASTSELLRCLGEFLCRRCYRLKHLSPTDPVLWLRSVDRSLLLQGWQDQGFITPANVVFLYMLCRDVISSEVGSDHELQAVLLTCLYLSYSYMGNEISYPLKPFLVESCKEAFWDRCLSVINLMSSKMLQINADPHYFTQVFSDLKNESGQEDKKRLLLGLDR

How did the “effect of a mutation on the interaction” value turn out when R74Q was run?
Its value is “with no effect”.

Variants of: B1
Details: with uxt_human UXT

With R74Q as the variant, how does the “effect of a mutation on the interaction” value read?
The value was “with no effect”.

Variants of: B1
Details: with yipf3_human YIPF3, Q9GZM5
Chain of yipf3_human YIPF3, Q9GZM5 (Q9GZM5 whole entry): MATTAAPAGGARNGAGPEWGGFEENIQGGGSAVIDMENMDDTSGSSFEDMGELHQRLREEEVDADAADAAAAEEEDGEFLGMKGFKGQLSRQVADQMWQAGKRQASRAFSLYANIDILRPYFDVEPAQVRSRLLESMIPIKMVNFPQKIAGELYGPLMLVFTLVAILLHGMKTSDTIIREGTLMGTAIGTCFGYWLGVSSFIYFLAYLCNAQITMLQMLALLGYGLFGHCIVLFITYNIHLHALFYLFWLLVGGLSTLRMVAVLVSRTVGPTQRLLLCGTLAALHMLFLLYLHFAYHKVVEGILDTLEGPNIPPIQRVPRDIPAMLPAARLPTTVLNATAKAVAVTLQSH

Which “effect of a mutation on the interaction” value does the source give for R74Q here?
Its value is “with no effect”.

Variants of: B1
Details: with thms2_human THEMIS2, Q5TEJ8

Which “effect of a mutation on the interaction” value does the source give for R74Q here?
Its value is “with no effect”.

Variants of: B1
Details: with bmp7_human BMP7, P18075
Chain of bmp7_human BMP7, P18075 (P18075 whole entry): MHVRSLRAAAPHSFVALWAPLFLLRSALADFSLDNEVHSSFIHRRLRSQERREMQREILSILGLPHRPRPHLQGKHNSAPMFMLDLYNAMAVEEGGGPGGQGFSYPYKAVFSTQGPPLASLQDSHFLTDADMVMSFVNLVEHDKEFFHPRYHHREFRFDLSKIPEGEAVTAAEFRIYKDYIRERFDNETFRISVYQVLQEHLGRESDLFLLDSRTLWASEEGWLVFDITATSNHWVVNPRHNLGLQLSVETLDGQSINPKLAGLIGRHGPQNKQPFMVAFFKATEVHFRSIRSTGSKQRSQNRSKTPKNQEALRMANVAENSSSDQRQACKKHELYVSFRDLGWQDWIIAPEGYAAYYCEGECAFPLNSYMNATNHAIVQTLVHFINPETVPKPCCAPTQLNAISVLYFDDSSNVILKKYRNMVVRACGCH

With R74Q as the variant, how does the “effect of a mutation on the interaction” value read?
Its value is “with no effect”.

Variants of: B1
Details: with cxcl5_human CXCL5, P42830
Chain of cxcl5_human CXCL5, P42830 (P42830 whole entry): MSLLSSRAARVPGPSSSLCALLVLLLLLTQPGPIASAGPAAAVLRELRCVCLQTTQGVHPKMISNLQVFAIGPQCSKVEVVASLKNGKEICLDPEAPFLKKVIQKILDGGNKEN

With R74Q as the variant, how does the “effect of a mutation on the interaction” value read?
The value was “with no effect”.
